For two substances, K0.5, kcat and stoichiometry N results are on record in paper PMC8406172, “Mechanism of DNA Interaction and Translocation by the Replicase of a Circular Rep-Encoding Single-Stranded DNA Virus” (mBio, 2021).

Series [1] has as its system Nc1ccn([C@@H]2O[C@H](COP(=O)(O)OP(=O)(O)OP(=O)(O)O)[C@@H](O)[C@H]2O)c(=O)n1. In words: purified protein. To be noted: 66 nM Rep, room temperature; copurifying DNA present.
Source text: (§1) NTP/NADH-coupled spectrophotometric assay (pyruvate kinase / lactate dehydrogenase) on PCV2 Rep (replicase)
Series [2] concerns Nc1nc2c(ncn2[C@@H]2O[C@H](COP(=O)(O)OP(=O)(O)OP(=O)(O)O)[C@@H](O)[C@H]2O)c(=O)[nH]1. The series can be described thus: purified protein. To be noted: 66 nM Rep, room temperature; copurifying DNA present.
Source text: as §1
The test system of series [3] is O=c1ccn([C@@H]2O[C@H](COP(=O)(O)OP(=O)(O)OP(=O)(O)O)[C@@H](O)[C@H]2O)c(=O)[nH]1. The series can be described thus: purified protein. To be noted: 66 nM Rep, room temperature; copurifying DNA present.
Source text: as §1
In series [4] the target is porcine circovirus 2 (PCV2) replicase (Rep) (porcine circovirus 2 (PCV2b)). The series can be described thus: cryo-EM structure.

As for “PCV2 Rep (replicase) (Porcine circovirus 2)”, the results for the K0.5 in series [1], in series [2] and in series [3] were 284.4 µM, 577.2 µM and 78.5 µM, respectively. For the same substance, the catalytic constant (kcat) (usually the number of substrate molecules converted per active site and unit of time at saturation) in series [1] turned out to be 0.16 s⁻¹; in series [2], 0.56 s⁻¹; in series [3], 0.24 s⁻¹.
Regarding “porcine circovirus 2 (PCV2) replicase (Rep) (enzyme)”, the stoichiometry N (as a rule, the number of molecules, sites or subunits per partner or assembly) in series [4] worked out at 6.
